# Measurements taken from patent US20250263504A1 (Takeda / Millennium, published 2025).
# T1: Factor XIIa (FXIIa) (UniProt P00748 20-372; P00748 373-615, limits assumed)
# T1 construct: the description speaks of human FXIIa; also called active Factor XII
# T1 sequence (looked up) 1: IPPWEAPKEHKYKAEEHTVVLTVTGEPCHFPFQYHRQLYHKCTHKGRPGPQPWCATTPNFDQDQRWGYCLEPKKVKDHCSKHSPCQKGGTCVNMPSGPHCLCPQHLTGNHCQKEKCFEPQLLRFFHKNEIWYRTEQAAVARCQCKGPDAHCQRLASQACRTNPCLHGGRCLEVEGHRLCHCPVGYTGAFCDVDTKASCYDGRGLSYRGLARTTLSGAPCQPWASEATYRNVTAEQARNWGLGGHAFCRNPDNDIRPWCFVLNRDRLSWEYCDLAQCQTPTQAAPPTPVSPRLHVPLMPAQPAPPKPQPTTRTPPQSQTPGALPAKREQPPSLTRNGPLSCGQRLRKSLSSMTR
# T1 sequence (looked up) 2: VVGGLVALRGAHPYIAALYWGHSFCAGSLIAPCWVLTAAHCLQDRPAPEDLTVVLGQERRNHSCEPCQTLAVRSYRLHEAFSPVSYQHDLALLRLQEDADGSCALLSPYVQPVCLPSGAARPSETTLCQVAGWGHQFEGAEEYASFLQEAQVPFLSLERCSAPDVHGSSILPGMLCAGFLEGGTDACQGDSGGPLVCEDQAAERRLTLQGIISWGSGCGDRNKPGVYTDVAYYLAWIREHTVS
# Legend:
# plasma kallikrein (pKal) = biological target: T2, plasma kallikrein (pKal) (UniProt P03952 20-390; P03952 391-638, limits assumed); assay: enzyme inhibition, corrected Ki,app
# T2 construct: the description speaks of human pKal; also called active pKal
# Factor XIIa (FXIIa) = biological target: T1, Factor XIIa (FXIIa); assay: enzyme inhibition, corrected Ki,app
# T2 sequence (P03952 20-390 limits assumed, form in doubt, chain 1 of 2): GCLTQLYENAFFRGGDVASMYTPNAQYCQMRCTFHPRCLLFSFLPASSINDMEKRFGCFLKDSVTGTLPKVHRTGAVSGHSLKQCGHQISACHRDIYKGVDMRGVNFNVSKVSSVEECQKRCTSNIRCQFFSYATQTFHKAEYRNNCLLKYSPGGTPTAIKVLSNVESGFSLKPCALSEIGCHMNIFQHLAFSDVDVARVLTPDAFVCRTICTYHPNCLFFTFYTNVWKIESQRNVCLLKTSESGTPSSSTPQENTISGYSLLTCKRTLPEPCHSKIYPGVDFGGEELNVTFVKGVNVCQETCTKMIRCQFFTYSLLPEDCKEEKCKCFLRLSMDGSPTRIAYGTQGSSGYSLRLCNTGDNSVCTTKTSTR
# T2 sequence (P03952 391-638 limits assumed, form in doubt, chain 2 of 2): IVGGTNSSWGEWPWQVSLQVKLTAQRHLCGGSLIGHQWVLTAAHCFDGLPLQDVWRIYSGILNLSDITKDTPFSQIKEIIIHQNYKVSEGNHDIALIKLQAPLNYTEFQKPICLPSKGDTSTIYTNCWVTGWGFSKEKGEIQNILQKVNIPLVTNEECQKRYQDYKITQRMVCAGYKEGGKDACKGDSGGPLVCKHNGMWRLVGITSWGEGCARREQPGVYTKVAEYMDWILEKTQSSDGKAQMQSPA
Binder,Ki (plasma kallikrein (pKal)) [nM],Ki (Factor XIIa (FXIIa)) [nM]
"620I-X0136-C05 (bispecific antibody, also called 620I-X136-C05) heavy: not shown light: DIQMTQSPSTLSASVGDRVTITCRASQSISSWLAWYQQKPGKAPKLLIYKASTLESGVPSRFSGSGSGTEFTLTISSLQPDDFATYYCQQYNTYWTFGQGTKVEIKRTVAAPSVFIFPPSDEQLKSGTASVVCLLNNFYPREAKVQWKVDNALQSGNSQESVTEQDSKDSTYSLSSTLTLSKADYEKHKVYACEVTHQGLSSPVTKSFNRGEC",0.15,0.058
"620I-X0136-A09 (bispecific antibody, human IgG1, kappa, also called 620I-X136-A09) heavy: not shown light: DIQMTQSPSTLSASVGDRVTITCRASQSISSWLAWYQQKPGKAPKLLIYKASTLESGVPSRFSGSGSGTEFTLTISSLQPDDFATYYCQQYNTYWTFGQGTKVEIKRTVAAPSVFIFPPSDEQLKSGTASVVCLLNNFYPREAKVQWKVDNALQSGNSQESVTEQDSKDSTYSLSSTLTLSKADYEKHKVYACEVTHQGLSSPVTKSFNRGEC",0.19,–
"620I-X0138-A06 (bispecific antibody, also called 620I-X138-A06) heavy: not shown light: DIQMTQSPSTLSASVGDRVTITCRASQSISSWLAWYQQKPGKAPKLLIYKASTLESGVPSRFSGSGSGTEFTLTISSLQPDDFATYYCQQYNTYWTFGQGTKVEIKRTVAAPSVFIFPPSDEQLKSGTASVVCLLNNFYPREAKVQWKVDNALQSGNSQESVTEQDSKDSTYSLSSTLTLSKADYEKHKVYACEVTHQGLSSPVTKSFNRGEC",0.145,–
"620I-X0136-B11 (bispecific antibody, also called 620I-X136-B11) heavy: not shown light: DIQMTQSPSTLSASVGDRVTITCRASQSISSWLAWYQQKPGKAPKLLIYKASTLESGVPSRFSGSGSGTEFTLTISSLQPDDFATYYCQQYNTYWTFGQGTKVEIKRTVAAPSVFIFPPSDEQLKSGTASVVCLLNNFYPREAKVQWKVDNALQSGNSQESVTEQDSKDSTYSLSSTLTLSKADYEKHKVYACEVTHQGLSSPVTKSFNRGEC",0.172,0.184
"620I-X0136-C07 (bispecific antibody, also called 620I-X136-C07) heavy: not shown light: DIQMTQSPSTLSASVGDRVTITCRASQSISSWLAWYQQKPGKAPKLLIYKASTLESGVPSRFSGSGSGTEFTLTISSLQPDDFATYYCQQYNTYWTFGQGTKVEIKRTVAAPSVFIFPPSDEQLKSGTASVVCLLNNFYPREAKVQWKVDNALQSGNSQESVTEQDSKDSTYSLSSTLTLSKADYEKHKVYACEVTHQGLSSPVTKSFNRGEC",0.182,0.699
"620I-X0136-A05 (bispecific antibody, also called 620I-X136-A05) heavy: not shown light: DIQMTQSPSTLSASVGDRVTITCRASQSISSWLAWYQQKPGKAPKLLIYKASTLESGVPSRFSGSGSGTEFTLTISSLQPDDFATYYCQQYNTYWTFGQGTKVEIKRTVAAPSVFIFPPSDEQLKSGTASVVCLLNNFYPREAKVQWKVDNALQSGNSQESVTEQDSKDSTYSLSSTLTLSKADYEKHKVYACEVTHQGLSSPVTKSFNRGEC",0.179,0.111
"620I-X0136-A04 (bispecific antibody, also called 620I-X136-A04) heavy: not shown light: DIQMTQSPSTLSASVGDRVTITCRASQSISSWLAWYQQKPGKAPKLLIYKASTLESGVPSRFSGSGSGTEFTLTISSLQPDDFATYYCQQYNTYWTFGQGTKVEIKRTVAAPSVFIFPPSDEQLKSGTASVVCLLNNFYPREAKVQWKVDNALQSGNSQESVTEQDSKDSTYSLSSTLTLSKADYEKHKVYACEVTHQGLSSPVTKSFNRGEC",0.171,0.23
"620I-X0136-B02 (bispecific antibody, also called 620I-X136-B02) heavy: not shown light: DIQMTQSPSTLSASVGDRVTITCRASQSISSWLAWYQQKPGKAPKLLIYKASTLESGVPSRFSGSGSGTEFTLTISSLQPDDFATYYCQQYNTYWTFGQGTKVEIKRTVAAPSVFIFPPSDEQLKSGTASVVCLLNNFYPREAKVQWKVDNALQSGNSQESVTEQDSKDSTYSLSSTLTLSKADYEKHKVYACEVTHQGLSSPVTKSFNRGEC",0.21,2.86
"620I-X0136-C01 (bispecific antibody, also called 620I-X136-C01) heavy: not shown light: DIQMTQSPSTLSASVGDRVTITCRASQSISSWLAWYQQKPGKAPKLLIYKASTLESGVPSRFSGSGSGTEFTLTISSLQPDDFATYYCQQYNTYWTFGQGTKVEIKRTVAAPSVFIFPPSDEQLKSGTASVVCLLNNFYPREAKVQWKVDNALQSGNSQESVTEQDSKDSTYSLSSTLTLSKADYEKHKVYACEVTHQGLSSPVTKSFNRGEC",0.173,0.957
"620I-X0136-C12 (bispecific antibody, also called 620I-X136-C12) heavy: not shown light: DIQMTQSPSTLSASVGDRVTITCRASQSISSWLAWYQQKPGKAPKLLIYKASTLESGVPSRFSGSGSGTEFTLTISSLQPDDFATYYCQQYNTYWTFGQGTKVEIKRTVAAPSVFIFPPSDEQLKSGTASVVCLLNNFYPREAKVQWKVDNALQSGNSQESVTEQDSKDSTYSLSSTLTLSKADYEKHKVYACEVTHQGLSSPVTKSFNRGEC",0.217,1.57
"620I-X0136-D05 (bispecific antibody, also called 620I-X136-D05) heavy: not shown light: DIQMTQSPSTLSASVGDRVTITCRASQSISSWLAWYQQKPGKAPKLLIYKASTLESGVPSRFSGSGSGTEFTLTISSLQPDDFATYYCQQYNTYWTFGQGTKVEIKRTVAAPSVFIFPPSDEQLKSGTASVVCLLNNFYPREAKVQWKVDNALQSGNSQESVTEQDSKDSTYSLSSTLTLSKADYEKHKVYACEVTHQGLSSPVTKSFNRGEC",0.055,0.013
"620I-X0136-A12 (bispecific antibody, also called 620I-X136-A12) heavy: not shown light: DIQMTQSPSTLSASVGDRVTITCRASQSISSWLAWYQQKPGKAPKLLIYKASTLESGVPSRFSGSGSGTEFTLTISSLQPDDFATYYCQQYNTYWTFGQGTKVEIKRTVAAPSVFIFPPSDEQLKSGTASVVCLLNNFYPREAKVQWKVDNALQSGNSQESVTEQDSKDSTYSLSSTLTLSKADYEKHKVYACEVTHQGLSSPVTKSFNRGEC",0.234,0.304
"620I-X0136-C11 (bispecific antibody, also called 620I-X136-C11) heavy: not shown light: DIQMTQSPSTLSASVGDRVTITCRASQSISSWLAWYQQKPGKAPKLLIYKASTLESGVPSRFSGSGSGTEFTLTISSLQPDDFATYYCQQYNTYWTFGQGTKVEIKRTVAAPSVFIFPPSDEQLKSGTASVVCLLNNFYPREAKVQWKVDNALQSGNSQESVTEQDSKDSTYSLSSTLTLSKADYEKHKVYACEVTHQGLSSPVTKSFNRGEC",0.154,0.038
"620I-X0136-C08 (bispecific antibody, also called 620I-X136-C08) heavy: not shown light: DIQMTQSPSTLSASVGDRVTITCRASQSISSWLAWYQQKPGKAPKLLIYKASTLESGVPSRFSGSGSGTEFTLTISSLQPDDFATYYCQQYNTYWTFGQGTKVEIKRTVAAPSVFIFPPSDEQLKSGTASVVCLLNNFYPREAKVQWKVDNALQSGNSQESVTEQDSKDSTYSLSSTLTLSKADYEKHKVYACEVTHQGLSSPVTKSFNRGEC",0.216,1.23
"620I-X0136-A11 (bispecific antibody, also called 620I-X136-A11) heavy: not shown light: DIQMTQSPSTLSASVGDRVTITCRASQSISSWLAWYQQKPGKAPKLLIYKASTLESGVPSRFSGSGSGTEFTLTISSLQPDDFATYYCQQYNTYWTFGQGTKVEIKRTVAAPSVFIFPPSDEQLKSGTASVVCLLNNFYPREAKVQWKVDNALQSGNSQESVTEQDSKDSTYSLSSTLTLSKADYEKHKVYACEVTHQGLSSPVTKSFNRGEC",0.199,0.193
"620I-X0136-C09 (bispecific antibody, also called 620I-X136-C09) heavy: not shown light: DIQMTQSPSTLSASVGDRVTITCRASQSISSWLAWYQQKPGKAPKLLIYKASTLESGVPSRFSGSGSGTEFTLTISSLQPDDFATYYCQQYNTYWTFGQGTKVEIKRTVAAPSVFIFPPSDEQLKSGTASVVCLLNNFYPREAKVQWKVDNALQSGNSQESVTEQDSKDSTYSLSSTLTLSKADYEKHKVYACEVTHQGLSSPVTKSFNRGEC",0.173,0.09
"620I-X0136-B07 (bispecific antibody, also called 620I-X136-B07) heavy: not shown light: DIQMTQSPSTLSASVGDRVTITCRASQSISSWLAWYQQKPGKAPKLLIYKASTLESGVPSRFSGSGSGTEFTLTISSLQPDDFATYYCQQYNTYWTFGQGTKVEIKRTVAAPSVFIFPPSDEQLKSGTASVVCLLNNFYPREAKVQWKVDNALQSGNSQESVTEQDSKDSTYSLSSTLTLSKADYEKHKVYACEVTHQGLSSPVTKSFNRGEC",0.168,0.099
"620I-X0136-C04 (bispecific antibody, also called 620I-X136-C04) heavy: not shown light: DIQMTQSPSTLSASVGDRVTITCRASQSISSWLAWYQQKPGKAPKLLIYKASTLESGVPSRFSGSGSGTEFTLTISSLQPDDFATYYCQQYNTYWTFGQGTKVEIKRTVAAPSVFIFPPSDEQLKSGTASVVCLLNNFYPREAKVQWKVDNALQSGNSQESVTEQDSKDSTYSLSSTLTLSKADYEKHKVYACEVTHQGLSSPVTKSFNRGEC",0.205,0.189
"620I-X0136-A02 (bispecific antibody, also called 620I-X136-A02) heavy: not shown light: DIQMTQSPSTLSASVGDRVTITCRASQSISSWLAWYQQKPGKAPKLLIYKASTLESGVPSRFSGSGSGTEFTLTISSLQPDDFATYYCQQYNTYWTFGQGTKVEIKRTVAAPSVFIFPPSDEQLKSGTASVVCLLNNFYPREAKVQWKVDNALQSGNSQESVTEQDSKDSTYSLSSTLTLSKADYEKHKVYACEVTHQGLSSPVTKSFNRGEC",0.176,0.136
"620I-X0136-A01 (bispecific antibody, also called 620I-X136-A01) heavy: not shown light: DIQMTQSPSTLSASVGDRVTITCRASQSISSWLAWYQQKPGKAPKLLIYKASTLESGVPSRFSGSGSGTEFTLTISSLQPDDFATYYCQQYNTYWTFGQGTKVEIKRTVAAPSVFIFPPSDEQLKSGTASVVCLLNNFYPREAKVQWKVDNALQSGNSQESVTEQDSKDSTYSLSSTLTLSKADYEKHKVYACEVTHQGLSSPVTKSFNRGEC",0.135,0.224
